Measurements as given in patent US7803377B2, “Anti-DLL4 antibodies and methods using same” (Genentech, Inc., priority 2006, dated 2010).

Molecular target: T1, full length DLL4 (Homo sapiens, UniProt Q9NR61)
T1 construct: transiently transfected with vector, full length DLL4, Jag1 or DLL1; expressed in transfected cells; host or cells: 293 cells, transient
Assay: FACS analysis of transiently transfected 293 cells
Type: binding
Details: DLL4 transfected 293 cells; antibody 2 μg/ml

## YW26.82: affinity matured anti-DLL4 monoclonal antibody; HVR-H1/H2/H3 SEQ ID NO:1, 8, 9; HVR-L1/L2/L3 SEQ ID NO:10, 11, 18
  binding by FACS: significant binding
